Measurements: patent publication US20150152398, “Endoribonuclease and Methods of Use Thereof” (The Regents of the University of California, published 2015)

Assays:
TtCas6A (TTHA0078, Cas6) [1] = target: T1, TtCas6A (TTHA0078, Cas6) (Thermus thermophilus HB8); assay: structure; crystal structure of substrate mimic complex, 2:1 in crystal; conditions: chain copies: 2 stated (dimer in solution); hairpin
T1 chain: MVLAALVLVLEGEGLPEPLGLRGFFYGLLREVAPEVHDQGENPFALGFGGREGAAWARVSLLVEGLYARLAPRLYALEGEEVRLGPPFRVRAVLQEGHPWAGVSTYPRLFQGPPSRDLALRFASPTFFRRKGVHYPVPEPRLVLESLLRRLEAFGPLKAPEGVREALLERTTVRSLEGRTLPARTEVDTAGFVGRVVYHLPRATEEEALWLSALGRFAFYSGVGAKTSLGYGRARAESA
Text: (§1) To determine how TtCas6A and TtCas6B bind and cleave their RNA substrates, we solved crystal structures of these proteins both alone and in complexes with their cognate RNAs (FIG. 23A, FIG. 30). For TtCas6A, we obtained a structure of the enzyme bound to a substrate mimic based on the R1 repeat sequence, consisting of the R1 stem-loop flanked by two additional nucleotides on either end of the stem. Cleavage of the substrate mimic RNA was prevented by introducing a 2′-deoxyribonucleotide at the G28 position, thereby removing the 2′-hydroxyl nucleophile required for the cleavage reaction. In addition to the substrate mimic complex, a crystal structure of a complex of TtCas6A and a cleaved RNA product was obtained when full-length R1 repeat was bound to wild-type TtCas6A and allowed to undergo cleavage during subsequent complex purification and crystallization. Finally, we determined the crystal structure of the TtCas6A H37A mutant, lacking a critical active site residue, in the absence of bound RNA. For TtCas6B, we determined crystal structures of the wild-type enzyme alone and in complex with a product of the R3 repeat cleavage reaction.

TtCas6A (TTHA0078, Cas6) [2] = target: T1, TtCas6A (TTHA0078, Cas6); assay: structure; crystal structure of cleaved R1 product complex, 2:1 in crystal; conditions: chain copies: 2 stated (dimer in solution); label: 5'-32P (EMSA); hairpin
Text: as §1

TtCas6B (TTHB231, Cas6) = target: T2, TtCas6B (TTHB231, Cas6) (Thermus thermophilus HB8); assay: structure; crystal structure of R3 product complex, 2:2; conditions: chain copies: 2 stated (dimer in solution); label: 5'-32P (EMSA); hairpin
T2 chain: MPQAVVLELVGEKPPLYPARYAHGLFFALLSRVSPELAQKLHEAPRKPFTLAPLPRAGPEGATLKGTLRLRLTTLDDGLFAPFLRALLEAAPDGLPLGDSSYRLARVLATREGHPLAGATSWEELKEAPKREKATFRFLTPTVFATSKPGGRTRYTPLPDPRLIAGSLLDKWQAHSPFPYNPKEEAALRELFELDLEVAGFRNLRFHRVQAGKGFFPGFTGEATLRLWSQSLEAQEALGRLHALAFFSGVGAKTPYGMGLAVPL

TtCas6A H37A = target: T3, TtCas6A H37A (Thermus thermophilus HB8, H37A); assay: cleavage_in_vitro; almost inactive; rate enhanced about 360-fold with 500 mM imidazole; conditions: chain copies: 2 inferred; hairpin
T3 chain: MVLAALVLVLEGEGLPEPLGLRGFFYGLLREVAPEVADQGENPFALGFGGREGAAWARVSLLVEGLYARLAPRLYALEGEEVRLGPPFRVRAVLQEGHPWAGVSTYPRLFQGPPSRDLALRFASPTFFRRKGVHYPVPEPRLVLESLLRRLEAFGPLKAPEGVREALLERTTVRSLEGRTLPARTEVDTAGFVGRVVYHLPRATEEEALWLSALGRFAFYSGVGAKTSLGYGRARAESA
Text: (§2) Sites of cleavage are indicated with blue arrows. TtCas6e (TTHB192) cleaves repeat R2, while TtCas6A (TTHA0078) and TtCas6B (TTHB231) both cleave repeats R1 and R3. (B) Cleavage product binding affinities of TtCas6A and TtCas6B enzymes. Maltose binding protein (MBP)-fused TtCas6A or TtCas6B were bound to in 5′-radiolabelled, vitro transcribed R1 and R3 RNAs. Bound and unbound fractions were resolved by electrophoresis on a native polyacrylamide gel and visualized by phosphorimaging. The data for these and all subsequent binding assays were fit with standard binding isotherms (solid line). Error bars on each data point denote standard error of the mean (SEM) from three independent experiments. (C) Experiments to confirm single turnover. RNA cleavage assays were carried out at indicated protein:RNA ratios. RNA cleavage was monitored using denaturing polyacrylamide gel electrophoresis. […]
(§3) To shed light on the catalytic mechanism of TtCas6A and TtCas6B, we performed cleavage assays using wild type proteins as well as active site mutants TtCas6A H37A and TtCas6B H42A using repeat R1 as a substrate (FIG. 2C). The first order rate constant determined under single-turnover conditions for wild type TtCas6A (3.2 min⁻¹) and TtCas6B (3.7 min⁻¹) are in good agreement with first order rate constants previously determined for PaCas6f and TtCas6e. […]

TtCas6B H42A = target: T4, TtCas6B H42A (Thermus thermophilus HB8, H42A); assay: cleavage_in_vitro; repeat R1; conditions: chain copies: 2 inferred; hairpin
T4 chain: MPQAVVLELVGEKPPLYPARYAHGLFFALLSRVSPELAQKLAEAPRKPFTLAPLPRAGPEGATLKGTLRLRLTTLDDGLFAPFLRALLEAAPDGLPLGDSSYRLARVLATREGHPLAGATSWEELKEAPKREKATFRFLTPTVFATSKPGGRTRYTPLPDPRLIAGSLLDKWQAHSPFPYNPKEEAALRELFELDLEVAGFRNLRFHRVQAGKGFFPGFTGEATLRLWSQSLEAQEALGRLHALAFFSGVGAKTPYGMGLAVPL
Text: as §2, with “FIG. 22 illustrates that TtCas6A and TtCas6B both cleave repeats R1 and R3 and retain their cleaved products. (A) Sequences and predicted secondary structures of T. thermophilus CRISPR repeats. Sites” for “Sites”, “Error bars on each data point denote standard error of the mean (SEM) from three independent experiments. (C) Experiments to confirm single turnover. RNA cleavage assays were carried out at indicated protein:RNA ratios.” left out
as §3

TtCas6A (TTHA0078, Cas6) [3] = target: T1, TtCas6A (TTHA0078, Cas6); assay: 5' truncation series, FIG. 5; conditions: chain copies: 2 stated (dimer in solution); hairpin
TtCas6A (TTHA0078, Cas6) [4] = target: T1, TtCas6A (TTHA0078, Cas6); assay: EMSA; deletion of nt 1-8 had little effect on affinity; conditions: chain copies: 2 stated (dimer in solution); hairpin
TtCas6A (TTHA0078, Cas6) [5] = target: T1, TtCas6A (TTHA0078, Cas6); assay: EMSA; Kd in FIG. 25D only; conditions: chain copies: 2 stated (dimer in solution); hairpin

AGCCCCGUAAGGGGAU (ssRNA, 2'-deoxy at G28) [R1 substrate mimic (nt 15-30, 2'-deoxy G28)]: binds (TtCas6A (TTHA0078, Cas6) [1]).

GUUGCAAGGGAUUGAGCCCCGUAAGGGGAUUGCGAC (ssRNA) [R1 repeat RNA (Tt_R1)]: binds (TtCas6A (TTHA0078, Cas6) [2]).

GUUGCAAACCUCGUUAGCCUCGUAGAGGAUUGAAAC (ssRNA) [R3 repeat RNA (Tt_R2 in Example 1)]: binds (TtCas6B (TTHB231, Cas6)).

GUUGCAAGGGAUUGAGCCCCGUAAGGGGAU (ssRNA) [R1 nt 1-30] gave an activity (TtCas6A H37A) of roughly 17000 fold cleavage defect and an activity (TtCas6B H42A) of roughly 300 fold cleavage defect.

With AGGGAUUGAGCCCCGUAAGGGGA (ssRNA) [R1 nt 7-29] the binding signal (TtCas6A (TTHA0078, Cas6) [3]) was 2.3 fold stronger than nt 8-29.

GGAUUGAGCCCCGUAAGGGGAU (ssRNA) [R1 deletion of nt 1-8]: binds (TtCas6A (TTHA0078, Cas6) [4]).

For GAGCCCCGUAAGGGGAU (ssRNA) [R1 deletion of nt 1-13], the “fold increase in Kd relative to full R1” value (TtCas6A (TTHA0078, Cas6) [5]) was ~900 fold higher Kd than full R1.
